Data set [1] has as its target E2 ubiquitin-conjugating enzyme Ubch8, O14933.
Data set [2] concerns the target E2 ubiquitin-conjugating enzyme UbchD2, P62837.

Sequence of E2 ubiquitin-conjugating enzyme Ubch8, O14933 (O14933 whole entry): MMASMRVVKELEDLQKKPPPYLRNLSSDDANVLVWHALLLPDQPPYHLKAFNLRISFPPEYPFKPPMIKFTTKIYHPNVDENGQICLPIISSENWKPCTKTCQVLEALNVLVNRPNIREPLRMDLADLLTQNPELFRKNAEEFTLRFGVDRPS
Sequence of E2 ubiquitin-conjugating enzyme UbchD2, P62837 (P62837 whole entry, looked up): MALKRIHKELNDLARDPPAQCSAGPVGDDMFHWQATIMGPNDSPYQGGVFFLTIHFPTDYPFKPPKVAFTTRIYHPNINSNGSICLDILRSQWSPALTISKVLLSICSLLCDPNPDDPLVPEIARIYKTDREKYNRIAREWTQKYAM

B1: GST-Chfr (glutathione S-transferase fused to the N-terminus of full-length human Chfr) (protein)
chain: MERPEEGKQSPPPQPWGRLLRLGAEEGEPHVLLRKREWTIGRRRGCDLSFPSNKLVSGDHCRIVVDEKSGQVTLEDTSTSGTVINKLKVVKKQTCPLQTGDVIYLVYRKNEPEHNVAYLYESLSEKQGMTQESFEANKENVFHGTKDTSGAGAGRGADPRVPPSSPATQVCFEEPQPSTSTSDLFPTASASSTEPSPAGRERSSSCGSGGGGISPKGSGPSVASDEVSSFASALPDRKTASFSSLEPQDQEDLEPVKKKMRGDGDLDLNGQLLVAQPRRNAQTVHEDVRAAAGKPDKMEETLTCIICQDLLHDCVSLQPCMHTFCAACYSGWMERSSLCPTCRCPVERICKNHILNNLVEAYLIQHPDKSRSEEDVQSMDARNKITQDMLQPKVRRSFSDEEGSSEDLLELSDVDSESSDISQPYVVCRQCPEYRRQAAQPPHCPAPEGEPGAPQALGDAPSTSVSLTTAVQDYVCPLQGSHALCTCCFQPMPDRRAEREQDPRVAPQQCAVCLQPFCHLYWGCTRTGCYGCLAPFCELNLGDKCLDGVLNNNSYESDILKNYLATRGLTWKNMLTESLVALQRGVFLLSDYRVTGDTVLCYCCGLRSFRELTYQYRQNIPASELPVAVTSRPDCYWGRNCRTQVKAHHAMKFNHICEQTRFKN
As to B1, the results for the “ubiquitin-protein ligase activity in vitro (ubiquitination of GST-Chfr, anti-ubiquitin immunoblot)” value in data set [1] and in data set [2] were “did not function in this assay” and “supported the ubiquitin-protein ligase activity of Chfr”, respectively.

The record behind these values is US7176293.
